Measurements: patent US20090004675A1, “Method of Identifying Compounds for Bacterial Growth Modulation” (priority 2004, published 2009)

What was measured:
[1] = molecular target: Escherichia coli β clamp (beta subunit of DNA polymerase III holoenzyme), P0A988; experiment: fluorescence (fluorophore-labeled β titrated with peptide); ±0.4; labeled β; conditions: chains peptide; modification not given
[2] = molecular target: Streptococcus pyogenes β clamp; experiment: fluorescence anisotropy; labeled peptide; conditions: chains peptide; modification not given

Row | Binder | Kd [1] | Kd [2]
1 | RLLNDLRGLIGSEQVELEFD [20 mer peptide corresponding to the C-terminal 20 residues of E. coli Pol III α subunit] | 2.7 µM | 
2 | DEMGILGNMPEDNQLSLFDDFF [Peptide corresponding to C-terminal residues of Streptococcus pyogenes Pol C] |  | 2.2 µM
3 | DELGSLPNLPDKAQLSIFDM [C-terminal peptide corresponding to Staphylococcus aureus Pol C] |  | 14 µM
